According to patent publication US20240084003A1 (SIMCERE ZAIMING PHARMACEUTICAL, published 2024):
Changes are numbered by the printed parent chain. Each block holds one binder with its values, some of them ahead of it.

How the values were obtained:
[1] = molecular target: T1, human CD22-ECD-His protein (human, UniProt P20273 20-687); assay: ELISA, Ab 10.00 nM
T1 construct: Made in house in HEK293E; also called hCD22-ECD-His; recombinant human CD22-ECD His protein; not shown: His tag
T1 sequence: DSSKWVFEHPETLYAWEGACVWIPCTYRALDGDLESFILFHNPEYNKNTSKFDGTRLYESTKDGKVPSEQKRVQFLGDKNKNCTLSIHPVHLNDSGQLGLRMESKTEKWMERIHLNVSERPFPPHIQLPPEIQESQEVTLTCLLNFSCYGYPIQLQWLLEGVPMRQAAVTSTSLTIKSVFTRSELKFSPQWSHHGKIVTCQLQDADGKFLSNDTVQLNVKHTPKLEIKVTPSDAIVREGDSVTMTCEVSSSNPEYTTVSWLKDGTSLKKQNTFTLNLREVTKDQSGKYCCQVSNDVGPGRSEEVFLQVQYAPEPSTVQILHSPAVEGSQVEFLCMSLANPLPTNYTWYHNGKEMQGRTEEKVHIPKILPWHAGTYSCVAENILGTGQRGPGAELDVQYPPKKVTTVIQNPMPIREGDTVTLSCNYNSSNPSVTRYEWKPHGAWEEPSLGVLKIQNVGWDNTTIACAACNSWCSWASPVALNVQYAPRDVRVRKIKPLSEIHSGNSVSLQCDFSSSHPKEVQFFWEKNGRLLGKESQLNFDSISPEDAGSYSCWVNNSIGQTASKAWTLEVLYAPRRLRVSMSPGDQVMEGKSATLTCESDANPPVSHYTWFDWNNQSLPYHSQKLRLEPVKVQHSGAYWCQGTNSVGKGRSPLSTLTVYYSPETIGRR
Experimental: (§1) In order to detect the binding activity of CD22 human-murine chimeric antibodies to CD22 protein, the purified human CD22-ECD-His protein obtained in Example 2 was diluted with PBS to a final concentration of 2 μg/mL, and then added to 96-well ELISA plate at 100 μl/well. The plate was sealed with plastic film and incubated overnight at 4° C., the plate was washed 2 times with PBS the next day, and then a blocking solution [PBS+2% (w/w) BSA] was added for blocking at room temperature for 2 hours. […] After incubation at 37° C. for 2 hours, the plate was washed 3 times with PBS. HRP (horseradish peroxidase)-labeled secondary antibody (purchased from Sigma, catalog number: A0170) was added, and incubated at 37° C. for 2 hours, and the plate was washed 5 times with PBS. TMB substrate was added at 50 μl/well, and incubated at room temperature for 30 minutes, then a stop solution (1.0 N HCl) was added at 50 μl/well.

[2] = molecular target: T1, human CD22-ECD-His protein; assay: ELISA, Ab 0.10 nM
Experimental: as §1

[3] = molecular target: T2, murine CD22 protein (ACROBiosystems, SI2-M52Ha) (murine, UniProt P35329 22-708); assay: ELISA, murine CD22-ECD-His coated
T2 construct: extracellular domain; also called murine CD22-ECD; murine CD22-ECD-His
T2 sequence (looked up): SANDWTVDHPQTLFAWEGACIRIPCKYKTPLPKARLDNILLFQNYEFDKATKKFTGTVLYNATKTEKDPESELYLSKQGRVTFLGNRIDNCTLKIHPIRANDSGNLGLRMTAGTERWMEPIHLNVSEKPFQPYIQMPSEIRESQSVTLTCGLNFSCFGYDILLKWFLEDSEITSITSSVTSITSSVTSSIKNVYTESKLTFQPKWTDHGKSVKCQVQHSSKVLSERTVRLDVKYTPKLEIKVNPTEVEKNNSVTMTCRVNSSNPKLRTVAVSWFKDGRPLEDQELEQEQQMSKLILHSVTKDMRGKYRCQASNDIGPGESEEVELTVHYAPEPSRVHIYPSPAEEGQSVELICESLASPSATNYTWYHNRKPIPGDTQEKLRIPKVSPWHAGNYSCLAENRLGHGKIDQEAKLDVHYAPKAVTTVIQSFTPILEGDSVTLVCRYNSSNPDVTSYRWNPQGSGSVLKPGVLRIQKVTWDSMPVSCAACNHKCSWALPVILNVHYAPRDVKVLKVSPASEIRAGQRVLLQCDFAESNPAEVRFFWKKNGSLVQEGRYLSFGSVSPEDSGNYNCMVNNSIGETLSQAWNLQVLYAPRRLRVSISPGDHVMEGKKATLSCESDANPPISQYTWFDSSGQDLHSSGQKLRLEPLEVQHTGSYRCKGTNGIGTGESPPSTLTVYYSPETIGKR
Experimental: as §1
In order to detect the species cross-binding activity of the chimeric antibodies, an ELISA plate was coated with commercial murine CD22 protein (ACROBiosystems, catalog number: SI2-M52Ha) and monkey CD22 protein (ACROBiosystems, catalog number: SI2-R52Ha), respectively, and the ELISA detection was performed according to the method in Example 5.1.

[4] = molecular target: T1, human CD22-ECD-His protein; assay: ELISA, Ab 0.0001 nM
Experimental: as §1

[5] = molecular target: T1, human CD22-ECD-His protein; assay: ELISA, Ab 0.00001 nM
Experimental: as §1

[6] = molecular target: T1, human CD22-ECD-His protein; assay: ELISA, Ab 100.00 nM
Experimental: as §1

human CD22 domain1-4-His = molecular target: T3, human CD22 domain1-4-His (human, UniProt P20273 20-425); assay: ELISA, human CD22 domain1-4-His coated
T3 construct: also called hCD22 domain1-4-His; not shown: His tag
T3 sequence: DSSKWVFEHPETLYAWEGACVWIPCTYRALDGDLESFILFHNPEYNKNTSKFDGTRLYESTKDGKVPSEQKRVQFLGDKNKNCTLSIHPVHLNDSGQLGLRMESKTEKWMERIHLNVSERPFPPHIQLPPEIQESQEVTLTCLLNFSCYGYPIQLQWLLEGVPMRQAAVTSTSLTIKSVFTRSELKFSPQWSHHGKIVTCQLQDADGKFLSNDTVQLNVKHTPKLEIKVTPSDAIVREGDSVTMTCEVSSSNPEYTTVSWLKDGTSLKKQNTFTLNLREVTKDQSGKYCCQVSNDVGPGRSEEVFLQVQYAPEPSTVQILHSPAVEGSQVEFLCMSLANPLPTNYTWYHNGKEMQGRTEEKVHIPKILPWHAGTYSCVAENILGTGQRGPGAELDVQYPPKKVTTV

human CD22 domain5-7-His = molecular target: T4, human CD22 domain5-7-His (human, UniProt P20273 414-687); assay: ELISA, human CD22 domain5-7-His coated
T4 construct: also called hCD22 domain5-7-His; not shown: His tag
T4 sequence: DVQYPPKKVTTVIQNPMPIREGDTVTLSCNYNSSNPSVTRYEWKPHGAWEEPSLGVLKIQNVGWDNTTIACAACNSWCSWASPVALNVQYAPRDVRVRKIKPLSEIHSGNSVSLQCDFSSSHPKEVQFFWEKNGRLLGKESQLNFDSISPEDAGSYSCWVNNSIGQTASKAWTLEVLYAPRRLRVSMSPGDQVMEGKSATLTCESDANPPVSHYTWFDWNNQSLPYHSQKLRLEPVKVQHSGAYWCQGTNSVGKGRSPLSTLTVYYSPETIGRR

[7] = molecular target: T1, human CD22-ECD-His protein; assay: ELISA, Ab 0.001 nM
Experimental: as §1

[8] = molecular target: T1, human CD22-ECD-His protein; assay: ELISA, Ab 0.01 nM
Experimental: as §1

[9] = molecular target: T1, human CD22-ECD-His protein; assay: ELISA, human CD22-ECD-His coated
Experimental: as §1

OD450 [1]: 2.06 OD450
OD450 [2]: 2.1 OD450
binding result [3]: no binding (tested: 100 nM)
OD450 [4]: 0.27 OD450
OD450 [5]: 0.08 OD450
OD450 [6]: 2.1 OD450
EC50 (read off the curve) (human CD22 domain1-4-His): ~50 pM
binding result (human CD22 domain5-7-His): no binding (tested: 100 nM)
OD450 [7]: 0.51 OD450
OD450 [8]: 1.45 OD450
EC50 (read off the curve) [9]: ~40 pM
B1: F2.99.1 (antibody, human IgG1, lambda, V domains shown)
VH: QVTLKESGPGILQPSQTLSLTCSFSGFSLSTFPMGVGWIRQPSGKGLEWLAHIWWDDDEYYNPVLKSRLTISKDTSKKQVYLRIANVDTVDTATYYCTRANWDRWYFDVWGTGTTVTVSS
VL: QLVLTQSSSASFSLGASAKLTCTLSRQHSAYTIEWYQQQPLKPPKYVMEVKKDGSHSTGDGIPDRFSGSSSGADRYLSISNIQPEDEAIYICGVGDTIKEHFVFGGGTKVTVLG
notes: Human-murine chimeric IgG1, lambda

OD450 [1]: 2.68 OD450
OD450 [2]: 2.58 OD450
binding result [3]: no binding (tested: 100 nM)
OD450 [4]: 0.19 OD450
OD450 [5]: 0.09 OD450
OD450 [6]: 3.14 OD450
EC50 (read off the curve) (human CD22 domain1-4-His): ~40 pM
binding result (human CD22 domain5-7-His): no binding (tested: 100 nM)
OD450 [7]: 0.68 OD450
OD450 [8]: 1.95 OD450
EC50 (read off the curve) [9]: ~40 pM
B2: F2.42.9 (antibody, human IgG1, lambda, V domains shown)
VH: QVTLKESGPGILQPSQTLSLTCSFSGFSLSTFDRGVGWIRQPSGKGLEWLAHIWWNDKKFYNPVLKSRLTISKDTSKNQVFLTIANVDSADTATYSCARIVWDKYYFDYWGQGIPLTVSS
VL: B1 VL with R26S, Y46F, E49D, V50L, D64A, S78T, H101Q, F102Y
notes: as for B1

OD450 [1]: 1.98 OD450
OD450 [2]: 1.91 OD450
binding result [3]: no binding (tested: 100 nM)
OD450 [4]: 0.26 OD450
OD450 [5]: 0.21 OD450
OD450 [6]: 1.92 OD450
EC50 (read off the curve) (human CD22 domain1-4-His): ~100 pM
binding result (human CD22 domain5-7-His): no binding (tested: 100 nM)
OD450 [7]: 0.5 OD450
OD450 [8]: 1.34 OD450
EC50 (read off the curve) [9]: ~50 pM
B3: F2.127.11 (antibody, human IgG1, lambda, V domains shown)
VH: QVTLKESGPGILQPSQTLSLTCSFSGFSLSTFGMGVGWIRQPSGKGLEWLAHIWWDDDKHYNPALKSRLTISKDTSRNQVFLKIANVDTADGATYFCARDNWVSSLDYWGQGTSVIVSS
VL: QPVITQSSSASFSLGASAELTCTLSSQHSTYTIEWYQQQPLKPPKYVMGLKKDGSHSTGDGIPDRFSGSSSGADRYLSISNIQPEDEAIYICGVSDTIKEQFVYVFGGGTKVTVLG
notes: as for B1

OD450 [1]: 2.6 OD450
OD450 [2]: 2.55 OD450
binding result [3]: no binding (tested: 100 nM)
OD450 [4]: 0.2 OD450
OD450 [5]: 0.1 OD450
OD450 [6]: 3.28 OD450
binding result (human CD22 domain1-4-His): no binding (tested: 100 nM)
EC50 (read off the curve) (human CD22 domain5-7-His): ~50 pM
OD450 [7]: 0.64 OD450
OD450 [8]: 2.1 OD450
EC50 (read off the curve) [9]: ~40 pM
B4: F2.151.13 (antibody, human IgG1, lambda, V domains shown)
VH: QVHLQQPGTELMKPGASVKLSCKATGYTFRDYWLEWVKQRPGHGLEWIGEILPGSGNAYYNEKFKGKATFTADTSSNTAYMQLSSLTTEDSAIYYCARVYSNWYFDAWGKGTTVTVSS
VL: QAVVTQESALTTSPGETVTLTCRSSTGAVTTSNYANWVQEKPDHLFTGLIGGTNNQAPGVPARFSGSLIGDKAALTISGAQTEDEAIYFCALWFSNHWVFGGGTKLTVLG
notes: as for B1

OD450 [1]: 2.57 OD450
OD450 [2]: 2.52 OD450
binding result [3]: no binding (tested: 100 nM)
OD450 [4]: 0.1 OD450
OD450 [5]: 0.06 OD450
OD450 [6]: 2.71 OD450
binding result (human CD22 domain1-4-His): no binding (tested: 100 nM)
EC50 (read off the curve) (human CD22 domain5-7-His): ~100 pM
OD450 [7]: 0.46 OD450
OD450 [8]: 1.79 OD450
EC50 (read off the curve) [9]: ~50 pM
B5: F1.192.1 (antibody, human IgG1, kappa, V domains shown)
VH: AVQLQQSGVELVRPGASVKLSCTGSDFNIKEDYIHWVKQRPEQGLEWIGWIDPENGDTEYASKFQGKATITADTSSNTAYLQLSSLTSEDTAVYYCATYGSLDYWGQGTTLTVSS
VL: DIKMTQSPSSMYAFLGERVTITCKASQGINSFLTWFQQKPGKSPKTLIYRANRLVDGVPSRFSGSGSGQDYSLTISSLEYEDVGIYYCLQYDEFPRTFGGGTKLEIKR
notes: Human-murine chimeric IgG1, kappa
